Data set [1] has as its target T1, CBP HAT domain (UniProt Q92793 1319-1710). The experiment in a line: EMSA; 20 nM RNA, 0.05-0.6 uM protein, yeast tRNA 0.1 mg/ml; almost complete binding at 0.6 uM; 20 mM HEPES, 40 mM KCl, 1 mM EDTA, 0.2 mM DTT, 0.1 mg/ml BSA, 0.1% Tween-20, 20% glycerol, 0.1 mg/ml yeast tRNA; pH not stated; 1 h at 37 C; 1% agarose, 0.5x TBE. The note with it: protein: commercial; tags: GST; label: fluorescein-12-UTP, internal. A general note: In EMSA bound probe runs differently from free probe, usually more slowly.

The next data set concerns the target CBP bromodomain (UniProt Q92793 1081-1197). Put plainly: EMSA; same concentrations as HAT (up to 0.6 uM); no appreciable binding; 20 mM HEPES, 40 mM KCl, 1 mM EDTA, 0.2 mM DTT, 0.1 mg/ml BSA, 0.1% Tween-20, 20% glycerol, 0.1 mg/ml yeast tRNA; pH not stated; 1 h at 37 C; 1% agarose, 0.5x TBE. Particulars: protein: commercial; tags: GST; label: fluorescein-12-UTP, internal.

The target of data set [2] is T1, CBP HAT domain. The experiment in a line: competition; against labeled eRNA1; competitor up to 5 uM; 20 mM HEPES, 40 mM KCl, 1 mM EDTA, 0.2 mM DTT, 0.1 mg/ml BSA, 0.1% Tween-20, 20% glycerol, 0.1 mg/ml yeast tRNA; pH not stated; 1 h at 37 C; 1% agarose, 0.5x TBE. The note with it: protein: commercial; tags: GST.
The target of data set [3] is T1, CBP HAT domain. The experiment in a line: EMSA; 20 nM RNA, 0.05-0.6 uM protein, yeast tRNA 0.1 mg/ml; 20 mM HEPES, 40 mM KCl, 1 mM EDTA, 0.2 mM DTT, 0.1 mg/ml BSA, 0.1% Tween-20, 20% glycerol, 0.1 mg/ml yeast tRNA; pH not stated; 1 h at 37 C; 1% agarose, 0.5x TBE. The note with it: protein: commercial; tags: GST; label: fluorescein-12-UTP, internal.

T1 sequence (Q92793 1319-1710): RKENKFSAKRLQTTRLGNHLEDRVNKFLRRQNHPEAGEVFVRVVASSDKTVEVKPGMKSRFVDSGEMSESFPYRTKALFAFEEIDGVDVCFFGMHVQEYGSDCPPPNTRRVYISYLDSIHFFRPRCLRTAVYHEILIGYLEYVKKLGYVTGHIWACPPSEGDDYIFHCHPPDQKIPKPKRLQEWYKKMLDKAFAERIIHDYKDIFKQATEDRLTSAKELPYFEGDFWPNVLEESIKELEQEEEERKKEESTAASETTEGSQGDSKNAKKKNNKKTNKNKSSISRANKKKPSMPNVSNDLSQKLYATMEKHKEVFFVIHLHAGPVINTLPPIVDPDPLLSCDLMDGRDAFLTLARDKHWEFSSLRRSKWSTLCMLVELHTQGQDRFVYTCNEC
CBP bromodomain, sequence (Q92793 1081-1197): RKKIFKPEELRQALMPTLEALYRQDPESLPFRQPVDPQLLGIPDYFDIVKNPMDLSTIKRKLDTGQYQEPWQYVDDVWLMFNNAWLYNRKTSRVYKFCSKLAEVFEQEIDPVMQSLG

B1: Fos eRNA1 (150 nt), labeled (ssRNA)
RNA: UUCGGCGGAACCCAAUACAUGGAGUCUGGAGGUUAAGAGACUGCCAAGAAGUCAAGCGGAAAGAGAAACAAGAACGGGAAAGGAAGCUUGGCUGUUCUGUGGGCUUUGGGGCUUUGACCUUGUCUGGAAGCCAUAAACUCGGCUCGAGGG
For the molecule B1, the binding result with CBP HAT domain [1] is listed as “binds”; with CBP bromodomain it was “no binding”.

B2: Fos eRNA1 (150 nt), unlabeled competitor (ssRNA)
RNA: UUCGGCGGAACCCAAUACAUGGAGUCUGGAGGUUAAGAGACUGCCAAGAAGUCAAGCGGAAAGAGAAACAAGAACGGGAAAGGAAGCUUGGCUGUUCUGUGGGCUUUGGGGCUUUGACCUUGUCUGGAAGCCAUAAACUCGGCUCGAGGG
As for B2, the binding result with CBP HAT domain [2] is given as “binds”.

B3: ctrl RNA (150), labeled (ssRNA)
RNA: GCUGCCAUCUGUCACCUAACAGGAGGAGGCUGAGAGUUACUUGUCUGGGAGACUUGCUGAGAGACAAGGACAGGCCCUGGAUCUCCUCAAUGUAGCCUGUCCGGGACUAUUCAGUUCUAUGAGGGACUUCUUAGAGAAACUAGGGUGCCC
For B3, the binding result with CBP HAT domain [3] was “binds”.

B4: Fos eRNA3 (150), labeled (ssRNA)
RNA: CCUUACUAGCCGCUGAGCGUGCAGGCGUUGGGGACACUUUACACCGGGUUCAGAUUCCAGGGCCGCCACUCCAGGUGGAUAAUGAAGUACAGGCCAUAGUCUUUCUGUGCCCUAGACUGUCAUCUAUAACGUAAGCAUACUAGCAAGACC
Take B4: in the data set with CBP HAT domain [3], the binding result is given as “binds”.

Source of the values: publication PMC7515708, “Enhancer RNAs predict enhancer–gene regulatory links and are critical for enhancer function in neuronal systems”.
